Patent US20030096288A1 (Human Genome Sciences, published 2003)

Molecular target: T1, RAIDD (construct or tag not stated for the experiment) (human, UniProt P78560 1-199)
T1 construct: a tag may have been present; also called RAIDD expression construct
Assay: in vitro binding to GST fusion protein on glutathione beads
Procedure: In Vitro Binding Assay. […] The tagged proteins were expressed, purified, and immobilized into Ni²⁺ beads according to standard methodology. The GST-Fas and TNFR-1 fusion proteins were prepared as described previously (Chinnaiyan, A. M. et al., Cell 81:505-12 (1995)). ³⁵S-labeled proteins were obtained by in vitro transcription/translation using the TNT T7-coupled reticulocyte lysate system (Promega).
Beads were washed, boiled in SDS sample buffer, eluted proteins resolved by SDS-PAGE and visualized following autoradiography.

T1 sequence (P78560 whole entry): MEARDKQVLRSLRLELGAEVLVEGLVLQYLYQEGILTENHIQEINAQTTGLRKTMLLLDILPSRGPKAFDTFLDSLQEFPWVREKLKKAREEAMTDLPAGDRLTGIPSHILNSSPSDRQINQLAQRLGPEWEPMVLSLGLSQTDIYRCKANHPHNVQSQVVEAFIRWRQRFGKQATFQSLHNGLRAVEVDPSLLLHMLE

B1: GST-Fas fusion protein (receptor, UniProt P25445 191-335, looked up)
chain: KRKEVQKTCRKHRKENQGSHESPTLNPETVAINLSDVDLSKYITTIAGVMTLSQVKGFVRKNGVNEAKIDEIKNDNVQDTAEQKVQLLRNWHQLHGKKEAYDTLIKDLKKANLCTLAEKIQTIILKDITSDSENSNFRNEIQSLV
notes: not shown: GST
  binding result: no binding
